Experimental data: paper PMC10776578, “Epstein-Barr virus-driven B cell lymphoma mediated by a direct LMP1-TRAF6 complex” (Nature Communications, 2024)
Numbering of substitutions follows the chain as printed. Names and notes keep the numbering of the source. “Also recorded” adds a separate entry of the source.

B1: R392A (protein, UniProt Q9Y4K3 1-522, looked up, variant R392A)
TNF receptor-associated …: MSLLNCENSCGSSQSESDCCVAMASSCSAVTKDDSVGGTASTGNLSSSFMEEIQGYDVEFDPPLESKYECPICLMALREAVQTPCGHRFCKACIIKSIRDAGHKCPVDNEILLENQLFPDNFAKREILSLMVKCPNEGCLHKMELRHLEDHQAHCEFALMDCPQCQRPFQKFHINIHILKDCPRRQVSCDNCAASMAFEDKEIHDQNCPLANVICEYCNTILIREQMPNHYDLDCPTAPIPCTFSTFGCHEKMQRNHLARHLQENTQSHMRMLAQAVHSLSVIPDSGYISEVRNFQETIHQLEGRLVRQDHQIRELTAKMETQSMYVSELKRTIRTLEDKVAEIEAQQCNGIYIWKIGNFGMHLKCQEEEKPVVIHSPGFYTGKPGYKLCMALHLQLPTAQRCANYISLFVHTMQGEYDSHLPWPFQGTIRLTILDQSEAPVRQNHEEIMDAKPELLAFQRPTIPRNPKGFGYVTFMHLEALRQRTFIKDDTLLVRCEVSTRFDMGSLRREGFQPRSTDAGV
B2: Y473A (protein, UniProt Q9Y4K3 1-522, looked up, variant Y473A)
TNF receptor-associated …: B1 TNF receptor-associated … with A392R, Y473A
B3: F471A (protein, UniProt Q9Y4K3 1-522, looked up, variant F471A)
TNF receptor-associated …: B1 TNF receptor-associated … with A392R, F471A

What was measured:
[1] = tested on: IκBα in TRAF6^-/- MEFs expressing NGFR-LMP1; assay: IκBα degradation (canonical NF-κB) upon NGFR-LMP1 crosslinking; assay type: cell-based, mouse; conditions: IκBα immunoblot
Excerpt: Wild-type MEFs and derivatives thereof, TRAF6^-/- MEFs[79], and HeLa cells (obtained from the German Collection of Microorganisms and Cell Cultures, GCMC) were kept in Dulbecco’s modified Eagle’s medium (DMEM, Thermo Fischer, #41966-029). The cell lines HEK293 (obtained from GCMC), HA-LCL3[31], LCL721[80], BL41[81], LCL.NGFR-LMP1[35], and the mouse lymphomas LMP1-CL 37 and 40 were kept in Roswell Park Memorial Institute medium (RPMI 1640, Thermo Fisher, #21875-034). If not indicated otherwise, DMEM and RMPI were supplemented with 10% of fetal bovine serum (FBS; Sigma, #F7524), 1 mM L-glutamine (Thermo Fisher, #25030-024) and antibiotics (50 U per mL penicilline and 50 µg per mL streptomycin). LCL.NGFR-LMP1 cells were additionally supplemented with 100 nM sodium selenite and crosslinking primary and secondary antibodies (see below). All cells were kept at 37 °C in the presence of 5% CO2. Retroviral transduction of MEFs with NGFR-LMP1 and TRAF6 was carried out with the vectors pSF91-NGFR-LMP1-IRES-GFP-WPRE and pSF91-Flag-TRAF6-IRES-CFP-WPRE expressing TRAF6 wild-type or the indicated TRAF6 mutants. For NGFR-LMP1 crosslinking, 1 µg per mL of α-NGFR primary antibody (clone HB8737, ATTC) was added for 1 h to the cells. signalling was activated by further addition of 10 µg per mL of α-mouse IgG/IgM secondary antibody (Dianova, #115-005-068) for the given time points.
Immunoblotting was essentially performed as described. Proteins were detected on nitrocellulose membranes (Bio-Rad, #1620115) using the following primary antibodies: α−6*His-tag (clone 4A4 or 2F12, source: antibody facility of the Helmholtz Center Munich, hybridoma supernatants were used at a 1:10 dilution)[75], α-TRAF6 (H-274, Santa Cruz Biotech., #sc-7221, used at 1:1000), α-HA-tag (12CA5, Sigma-Aldrich, #11583816001, used at 0.4 µg per mL), α-IκBα (C-21, Santa Cruz Biotech., #sc-371, used at 1:500) and α-Tubulin (B-5-1-2, Santa Cruz Biotech., #sc-23948, used at 1:500). […] ECL signals were captured on X-ray films (Agfa Healthcare) and quantified by densitometry using the ImageJ software. […]

[2] = tested on: HA-LMP1; assay: Coimmunoprecipitation of HA-LMP1 with Flag-TRAF6 mutants in HEK293 cells; assay type: cell-based, Epstein-Barr virus; conditions: for coprecipitated HA-LMP1 signal (densitometry), mean: HEK293, mean of n = 3; for interaction of TRAF6 mutants with LMP1 in HEK293 cells (in words): coimmunoprecipitation
Description: Immunoblotting was essentially performed as described. Proteins were detected on nitrocellulose membranes (Bio-Rad, #1620115) using the following primary antibodies: α−6*His-tag (clone 4A4 or 2F12, source: antibody facility of the Helmholtz Center Munich, hybridoma supernatants were used at a 1:10 dilution)[75], α-TRAF6 (H-274, Santa Cruz Biotech., #sc-7221, used at 1:1000), α-HA-tag (12CA5, Sigma-Aldrich, #11583816001, used at 0.4 µg per mL), α-IκBα (C-21, Santa Cruz Biotech., #sc-371, used at 1:500) and α-Tubulin (B-5-1-2, Santa Cruz Biotech., #sc-23948, used at 1:500). Horseradish peroxidase-coupled antibodies were used as secondary antibodies (Cell Signalling Technology, #7074 or #7076, respectively, both used at 1:5000). ECL signals were captured on X-ray films (Agfa Healthcare) and quantified by densitometry using the ImageJ software. Uncropped scans of immunoblots indicating molecular weights are provided in Supplementary Fig. 6.
HEK293 cells were transfected with 1 µg of pRK5-Flag TRAF6 plasmids, 1 µg of pCMV-HA-LMP1 and 6 µg of pRK5 per 10 cm cell culture dish using PolyFect Transfection Reagent (Qiagen, #301107) in RPMI without supplements. Cells were incubated with the plasmid transfection mix for 4 h before the medium was changed to RPMI full medium. After 24 h, the cells were lysed in NP40-lysis buffer (50 mM HEPES pH 7.5, 150 mM NaCl, 5 mM EDTA, 0.5 mM sodium orthovanadate, 0.5 mM PMSF, 0.5 mM sodium molybdate, and cOmplete protease inhibitor cocktail). Lysates were cleared by centrifugation at 15000 x g for 10 min at 4 °C, and the protein concentration was adjusted to 1 mg per mL. For immunoprecipitation 4 mL of lysate was incubated with the α-Flag antibody 6F7 (Sigma-Aldrich, #F3165; covalently coupled to protein-G-Sepharose) for 1 h at 4 °C. The beads were pelleted at 15000 x g for 30 seconds at 4 °C, washed twice with NP40-lysis buffer, and analyzed by immunoblotting.

[3] = tested on: GST-RANK314-355; assay: AlphaScreen PPI, TRAF6 mutants binding to RANK; parameters: species or system human
[4] = tested on: NF-κB in TRAF6^-/- MEFs; assay: NF-κB reporter assay, TRAF6 rescue of CTAR2 signalling; assay type: cell-based, mouse; parameters: unit not given here
Description: TRAF6^−/− cells (6 × 10^4) were seeded per well of a 6-well plate in DMEM full medium the day before transfection. Cells were transfected with 2 µg of the indicated pCMV-HA-LMP1 plasmids together with 0.5 µg of pRK5-Flag-TRAF6 plasmids or empty vector, 0.05 µg of NF-κB luciferase reporter 3xκB-Luc and 0.2 µg of pPGK-Renilla housekeeping control reporter using the PolyFect transfection reagent (Qiagen)[33]. After 4 h the transfection mix was removed, and the cells were kept overnight in DMEM full medium. NF-κB reporter and Renilla control activities were measured with the Dual-Luciferase reporter assay kit (Promega, #E1910) following the manufacturer’s instructions. Samples of each lysate were analyzed for LMP1 and TRAF6 expression by immunoblotting.

[5] = with A204xAxA (CTAR2-specific signalling), replicate 1
[6] = with A204xAxA/∆371-386 (inactive null control), replicate 1
[7] = with A204xAxA/∆371-386, mean of n = 5
[8] = with A204xAxA/∆371-386, replicate 2
[9] = with A204xAxA/∆371-386, replicate 3
[10] = with A204xAxA/∆371-386, replicate 4
[11] = with A204xAxA/∆371-386, replicate 5

Molecule | rescue of canonical NF-κB activation by NGFR-LMP1 (in words) [1] | coprecipitated HA-LMP1 signal (densitometry), mean [2] | interaction of TRAF6 mutants with LMP1 in HEK293 cells (in words) [2] | effect of TRAF6 mutation on binding to RANK (in words) ([3]; listed as TRAF6 R392A) | NF-κB reporter activity [4, 5] | NF-κB reporter activity, mean ([4]; with A204xAxA, mean of n = 5) | NF-κB reporter activity ([4]; with A204xAxA, replicate 2) | NF-κB reporter activity ([4]; with A204xAxA, replicate 3) | NF-κB reporter activity ([4]; with A204xAxA, replicate 4) | NF-κB reporter activity ([4]; with A204xAxA, replicate 5) | NF-κB reporter activity [4, 6] | NF-κB reporter activity, mean [4, 7] | NF-κB reporter activity [4, 8] | NF-κB reporter activity [4, 9] | NF-κB reporter activity [4, 10] | NF-κB reporter activity [4, 11] | effect of TRAF6 mutation on binding to RANK (in words) ([3]; listed as Y471A)
B1 | ineffective in rescuing canonical NF-κB activation | 2761976 | abolished the TRAF6 interaction with LMP1 | do not interact | 29.9 | 25.57 | 20.3 | 24.4 | 30.5 | 22.7 | 23.3 | 17.45 | 12.6 | 15.1 | 21.7 | 14.7 | –
B2 | ineffective in rescuing canonical NF-κB activation | 5322536 | abolished the TRAF6 interaction with LMP1 | – | 17.9 | 16.74 | 12.1 | 18.2 | 20.7 | 14.7 | 21.7 | 17.54 | 12.1 | 17.7 | 21.8 | 14.3 | –
B3 | ineffective in rescuing canonical NF-κB activation | 5862061 | abolished the TRAF6 interaction with LMP1 | – | 22.4 | 20.18 | 16.8 | 19.1 | 26.3 | 16.3 | 22.3 | 19.11 | 23.1 | 15.5 | 21.1 | 13.4 | abolished the interaction of TRAF6 with RANK; also recorded: do not bind to RANK
